Measurements: patent publication US11419948B2, “Functionalized microgels with fibrin binding elements” (Georgia Tech Research Corporation, priority 2013, dated 2022)

Key:
[1] = biological target: T1, fibrin clots (Homo sapiens, UniProt P02671+P02675+P02679); assay: Clot microstructure by confocal microscopy; format: biochemical; parameters: from tissue; host or cells: blood plasma (platelet-rich or platelet-poor); settings: clots formed in presence of particles, compared to control (fibrin-only) clots
T1 sequence (P02671 36-866 limits assumed): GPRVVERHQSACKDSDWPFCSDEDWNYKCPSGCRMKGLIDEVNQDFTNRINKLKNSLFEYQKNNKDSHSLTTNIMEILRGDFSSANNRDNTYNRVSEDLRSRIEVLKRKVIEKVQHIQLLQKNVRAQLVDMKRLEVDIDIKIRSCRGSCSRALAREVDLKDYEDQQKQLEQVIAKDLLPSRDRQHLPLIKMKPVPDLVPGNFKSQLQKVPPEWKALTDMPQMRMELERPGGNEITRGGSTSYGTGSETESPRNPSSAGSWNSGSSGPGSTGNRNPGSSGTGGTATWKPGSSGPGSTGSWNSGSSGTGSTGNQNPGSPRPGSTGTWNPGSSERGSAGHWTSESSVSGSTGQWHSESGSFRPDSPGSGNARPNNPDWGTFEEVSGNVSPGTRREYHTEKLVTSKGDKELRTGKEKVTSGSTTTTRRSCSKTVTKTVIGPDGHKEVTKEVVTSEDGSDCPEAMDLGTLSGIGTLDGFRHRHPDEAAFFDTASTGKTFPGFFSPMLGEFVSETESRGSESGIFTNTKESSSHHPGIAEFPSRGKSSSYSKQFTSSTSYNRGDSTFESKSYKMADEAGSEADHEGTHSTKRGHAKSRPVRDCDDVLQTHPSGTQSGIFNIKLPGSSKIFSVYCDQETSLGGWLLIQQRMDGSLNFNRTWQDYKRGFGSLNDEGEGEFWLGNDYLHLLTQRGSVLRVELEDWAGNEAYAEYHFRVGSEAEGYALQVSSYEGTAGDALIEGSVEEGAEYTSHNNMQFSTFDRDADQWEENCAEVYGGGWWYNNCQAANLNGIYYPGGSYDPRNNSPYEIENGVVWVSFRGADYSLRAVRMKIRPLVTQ
T1 sequence (P02675 45-491 limits assumed): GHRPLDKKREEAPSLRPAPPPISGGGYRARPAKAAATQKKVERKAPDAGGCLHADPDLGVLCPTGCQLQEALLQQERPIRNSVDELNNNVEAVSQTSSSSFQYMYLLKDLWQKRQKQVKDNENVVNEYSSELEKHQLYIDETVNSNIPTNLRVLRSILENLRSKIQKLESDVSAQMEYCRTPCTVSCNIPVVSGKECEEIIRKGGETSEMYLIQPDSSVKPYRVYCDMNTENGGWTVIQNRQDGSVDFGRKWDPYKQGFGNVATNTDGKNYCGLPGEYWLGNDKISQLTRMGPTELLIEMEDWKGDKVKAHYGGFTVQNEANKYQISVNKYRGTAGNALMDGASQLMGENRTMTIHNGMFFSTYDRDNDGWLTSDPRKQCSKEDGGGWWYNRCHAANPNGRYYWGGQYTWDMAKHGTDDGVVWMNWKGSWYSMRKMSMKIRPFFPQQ
T1 sequence (P02679 27-453): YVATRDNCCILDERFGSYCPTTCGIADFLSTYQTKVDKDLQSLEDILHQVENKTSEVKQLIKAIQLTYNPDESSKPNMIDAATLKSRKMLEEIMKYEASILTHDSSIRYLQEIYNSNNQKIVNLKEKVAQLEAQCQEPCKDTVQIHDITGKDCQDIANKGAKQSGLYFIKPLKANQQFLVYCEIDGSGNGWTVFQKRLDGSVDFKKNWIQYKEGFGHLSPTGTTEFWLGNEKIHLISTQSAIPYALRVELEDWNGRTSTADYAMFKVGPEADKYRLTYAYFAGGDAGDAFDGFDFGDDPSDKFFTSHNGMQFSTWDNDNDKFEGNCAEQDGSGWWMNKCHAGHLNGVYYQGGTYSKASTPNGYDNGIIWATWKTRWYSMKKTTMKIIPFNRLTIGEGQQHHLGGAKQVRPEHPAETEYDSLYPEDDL
Text: FIGS. 4A and 4B are maximum-intensity confocal images of fibrin clots formed from platelet-rich plasma (PRP) or platelet-poor plasma (PPP) in the absence or presence of PLPs or S11-ULCs. Fibrin, grey; microgels/platelets, circled.
To allow appreciation of the network structure in the presence of saturation, 0.33× exposures and equivalent exposures are shown on the left- and right-hand sides, respectively, of the images for PRP and PLP clots. […] FIG. 4E is a graph showing the calculated spread area of PLPs, natural platelets, S11-ULCs and H6-PS particles within fibrin matrices. (**p<0.01, ***p<0.001).
To further characterize the nature of PLP-fibrin interactions, clot microstructure was analyzed via confocal microscopy by forming clots in the presence or absence of scFv-ULC microgels. […] These clots were highly heterogeneous, containing regions of dense fibrin observed in conjugation with PLPs (FIG. 4A) with the dense features becoming more pronounced over time. These features were very similar to those observed from clots formed in platelet-rich plasma, although occurring on a different time scale.

[2] = tested on: traumatic injury; assay: Hemostasis in rodents following traumatic injury; format: in vivo; settings: 100 mg/kg intravenously
[3] = biological target: T1, fibrin clots; assay: Clot polymerization/degradation assay (thrombin, tPA, plasminogen; turbidity); format: biochemical; settings: versus control clots or clots with S11-ULC microgels
Protocol: Thrombin-initiated fibrin polymerization and degradation assays were used to evaluate clotting rates and persistence in the presence of H6 and S11 (control) ULC microgels at different microgel and fibrinogen concentrations. Competing polymerization and degradation reactions were created with a 96 well plate, and a final volume of 100 μL per well. Two solutions were made, a fibrinogen-microgel solution that was loaded initially, and a thrombin-tPA (tissue Plasminogen Activator)-plasminogen solution that was added in a 1:1 volume ratio. Final concentrations in each well were 2 mg/mL microgel and 2 mg/mL of fibrinogen, 5 mMol Ca^+, 0.25 U/mL of human thrombin (Enzyme Research Laboratories, Inc., South Bend, Ind.), 0.29 μg/mL of tissue Plasminogen Activator(tPA), and 10.8 μg/mL of Plasminogen. The remainder of the volume in the thrombin/tPA/plasminogen solution was made up of 25 mM Hepes, 150 mM NaCl buffer. Turbidity curves were be generated from absorbance measurements (SpectraMax M2 Microplate Reader, Molecular Devices, Sunnyvale, Calif.) at 350 nm, with reads taken every thirty seconds.

clot structure [1]: significantly altered clot structure | clot degradation [3]: more resistant to degradation
B1: PLPs: ultra-low crosslinked pNIPAm-AAc microgels conjugated to fibrin-specific sdFv H6 (conjugate)
VH: QVQLLESGGGLVQPGGSLRLSCAASGDRFTHNDMGWVRQAPGKGLEWVSTIPTTDGSTYYADSVKGRFTISRDNSKSTLYLQMNSLRAEDTAVYYCATGYMWKAPAYVKYWGQGTLVTVSSAAAEQKLISEEDLNSAAHYTDIG
augmentation of hemostasis [2]: effective to augment hemostasis
